The target of this assay is T1, Human CNTN-4 protein (human, UniProt Q8IWV2 19-1000, limits assumed).
T1 construct: soluble antigen run over the captured antibody; also called human CNTN4 (SPR analyte)
T1 sequence (looked up): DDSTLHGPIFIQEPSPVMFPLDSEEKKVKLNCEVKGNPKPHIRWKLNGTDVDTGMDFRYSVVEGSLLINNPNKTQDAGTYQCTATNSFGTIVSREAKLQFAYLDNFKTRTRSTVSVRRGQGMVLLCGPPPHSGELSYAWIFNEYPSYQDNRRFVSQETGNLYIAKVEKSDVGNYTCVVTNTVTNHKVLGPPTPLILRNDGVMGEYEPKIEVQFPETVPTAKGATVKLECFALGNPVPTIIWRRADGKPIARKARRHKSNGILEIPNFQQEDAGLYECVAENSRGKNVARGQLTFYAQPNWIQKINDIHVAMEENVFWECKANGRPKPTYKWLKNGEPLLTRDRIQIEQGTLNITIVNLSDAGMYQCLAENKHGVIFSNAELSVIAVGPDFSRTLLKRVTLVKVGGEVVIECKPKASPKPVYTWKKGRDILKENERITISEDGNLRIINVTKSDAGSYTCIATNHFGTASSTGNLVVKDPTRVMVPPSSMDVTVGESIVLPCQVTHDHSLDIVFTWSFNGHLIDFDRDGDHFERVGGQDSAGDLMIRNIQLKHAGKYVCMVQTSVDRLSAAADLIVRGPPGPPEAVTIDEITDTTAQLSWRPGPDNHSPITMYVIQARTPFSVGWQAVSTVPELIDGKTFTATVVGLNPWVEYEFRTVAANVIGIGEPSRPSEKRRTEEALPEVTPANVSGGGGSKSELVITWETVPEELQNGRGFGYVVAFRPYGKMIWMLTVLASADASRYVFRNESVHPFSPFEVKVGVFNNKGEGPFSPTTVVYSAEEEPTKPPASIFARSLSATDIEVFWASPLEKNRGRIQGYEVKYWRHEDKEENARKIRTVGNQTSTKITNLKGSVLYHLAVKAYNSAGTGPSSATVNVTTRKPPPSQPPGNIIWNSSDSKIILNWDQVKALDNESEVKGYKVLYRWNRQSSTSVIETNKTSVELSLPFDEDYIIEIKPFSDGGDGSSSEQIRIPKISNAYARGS
The assay can be described thus: SPR, antibody captured by anti-human IgG Fc on CM5 chip, CNTN4 as analyte. The procedure: Specifically, in order to bind anti-human IgG Fc (capture antibody) using amine coupling, CM5 chip was mounted, running buffer was allowed to flow, the chip was activated, and then capture antibody was attached thereto. Dextrin to which capture antibody was not attached was deactivated using ethanolamine, and then regeneration was performed using 3M magnesium chloride to clear analyte except capture antibody. The A-01 prepared at a concentration of 0.05 μg/mL was allowed to flow for 30 seconds at a rate of 10 μL/min for binding. Thereafter, human CNTN4 (400 nM to 0.78 nM) prepared by sequential dilution as an antigen was allowed to flow at a rate of 30 μL/min for 3 minutes to be bound, and dissociation was performed for 5 minutes. Then, in order to clear all analytes attached to the capture antibody, a regeneration solution (3M magnesium chloride) was allowed to flow at a rate of 20 μL/min for 30 seconds, and regeneration was performed. For each concentration of antigen, binding of A-01, binding of antigen, dissociation, and regeneration were repeated in order.

B1: anti-CNTN4 129 chimeric IgG4-S228P (antibody, V domains shown)
VH: AVTLDESEGGLQTPGGALSLVCKASGFTFSSFNMFWVRQAPGKGLEYVAEISGGGGSTWYAPAVKGRATISRDNGQSTVRLQLNNLRAEDTGTYYCAKSADTWSYGAATIDAWGHGTEVIVSS
VL: ALTQPSSVSANLGETVKITCSGSSGSYGWYQQKSPGSAPVTLIYDNTNRPSDIPSRFSGSGSGSTGTLTITGVRAEDEAVYYCGGYDGSTDVFGAGTTLTVL
notes: chicken-human chimeric IgG4-S228P made from S129, kappa light chain constant region (Kappa select); also called A-01; LAHA
The molecule B1 yielded a dissociation constant Kd of 33.6 nM.

The record behind these values is US20240182563A1 (GENOME, published 2024).
